In patent publication US20100040606A1:

Target: RSV protein F (fusion glycoprotein), recombinant or purified (human respiratory syncytial virus, strain not stated) (UniProt P03420)
Assay: SPR (Biacore 3000), Fab over immobilised recombinant antigen

Fab fragment derived from commercially available Palivizumab (Synagis)
Kd: 3.78 nM | koff: 0.000757 s⁻¹ | kon: 200000 M⁻¹ s⁻¹ | t1/2: 15 min
